We go through 2 substances from patent publication US20240092919A1.

Experiment [1] addresses human CD123 on cells (human) (UniProt P26951). In words: cell-based or functional assay.
The target of experiment [2] is human CD33 on cells (human) (UniProt P20138). Briefly: cell-based or functional assay.
human CD33 on cells (human), sequence (P20138 18-364): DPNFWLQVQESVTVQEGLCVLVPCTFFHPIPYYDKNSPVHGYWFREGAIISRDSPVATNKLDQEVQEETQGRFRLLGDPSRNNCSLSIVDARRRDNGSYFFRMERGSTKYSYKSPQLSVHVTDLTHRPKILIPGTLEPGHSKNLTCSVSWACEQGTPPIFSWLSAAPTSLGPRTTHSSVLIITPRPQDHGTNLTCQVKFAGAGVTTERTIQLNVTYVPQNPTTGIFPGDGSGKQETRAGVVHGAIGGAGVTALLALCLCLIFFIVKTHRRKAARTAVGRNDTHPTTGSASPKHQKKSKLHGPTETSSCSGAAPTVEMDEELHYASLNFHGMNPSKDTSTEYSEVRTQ

human CD123 on cells (human), sequence (P26951 19-378 limits assumed): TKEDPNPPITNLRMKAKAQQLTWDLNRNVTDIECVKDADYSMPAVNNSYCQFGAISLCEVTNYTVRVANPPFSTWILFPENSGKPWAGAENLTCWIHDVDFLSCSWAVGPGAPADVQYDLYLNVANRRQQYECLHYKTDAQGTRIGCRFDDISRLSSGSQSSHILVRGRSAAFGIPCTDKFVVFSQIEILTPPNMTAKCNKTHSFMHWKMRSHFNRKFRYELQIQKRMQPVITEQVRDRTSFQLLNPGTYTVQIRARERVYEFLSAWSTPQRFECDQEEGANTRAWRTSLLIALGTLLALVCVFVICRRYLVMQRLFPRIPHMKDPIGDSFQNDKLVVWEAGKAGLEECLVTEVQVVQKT

For “CD33/CD3 BiTE AMG 330 (bispecific antibody)”, in experiment [1], the % Lysis, human T cell mediated KG-1a cell killing is 15% and the EC50 (M), flow cytometry based human T cell mediated KG-1a cell killing, E:T 10:1 worked out at 8.7e-12 M. In experiment [2], this substance yielded a % Lysis, human T cell mediated U-937 cell killing of 55% and an EC50 (M), flow cytometry based human T cell mediated U-937 cell killing, E:T 10:1 of 1.1e-11 M.
On to “CD123/CD3 DART MGD006 (bispecific antibody)”, for which, in experiment [1], the % Lysis, human T cell mediated KG-1a cell killing was 58% and the EC50 (M), flow cytometry based human T cell mediated KG-1a cell killing, E:T 10:1 is 3e-12 M. In experiment [2], the % Lysis, human T cell mediated U-937 cell killing came to 13% and the EC50 (M), flow cytometry based human T cell mediated U-937 cell killing, E:T 10:1 amounted to 8.9e-13 M.
